Results taken from US20180339041A1 (Kyowa Kirin, published 2018).
Blank lines part the entries; values can stand above or below the binder they belong to.

What was measured:
[1] = target: T1, C-terminally FLAG-tagged human Gas6 recombinant protein (hGas6-F) (human, UniProt Q14393 31-678, gamma-carboxylated glutamic acid residues in the Gla domain (producer cells co-express rat VKOR and human GGCX); positions not given); experiment: ELISA, Gas6-F captured by anti-FLAG, biotinylated antibody
T1 construct: also called human Gas6-F; human Gas6 protein
T1 sequence: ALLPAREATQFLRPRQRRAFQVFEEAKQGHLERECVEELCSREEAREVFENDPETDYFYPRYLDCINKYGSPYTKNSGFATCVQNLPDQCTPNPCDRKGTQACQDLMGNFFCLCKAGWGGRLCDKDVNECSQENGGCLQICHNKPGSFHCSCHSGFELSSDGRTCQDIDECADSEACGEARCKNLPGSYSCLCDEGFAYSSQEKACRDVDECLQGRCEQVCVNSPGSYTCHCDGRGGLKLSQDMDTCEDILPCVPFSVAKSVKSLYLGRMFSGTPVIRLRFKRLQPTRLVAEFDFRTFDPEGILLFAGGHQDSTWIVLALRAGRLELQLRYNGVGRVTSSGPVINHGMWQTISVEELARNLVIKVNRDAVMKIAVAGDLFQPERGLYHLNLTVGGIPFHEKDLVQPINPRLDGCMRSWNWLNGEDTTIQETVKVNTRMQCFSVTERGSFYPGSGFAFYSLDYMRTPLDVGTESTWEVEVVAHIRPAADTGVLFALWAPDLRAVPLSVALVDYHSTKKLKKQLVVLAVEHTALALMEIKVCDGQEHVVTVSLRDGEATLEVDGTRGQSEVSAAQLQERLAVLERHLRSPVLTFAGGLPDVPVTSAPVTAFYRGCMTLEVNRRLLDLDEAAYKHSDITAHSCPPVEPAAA
Description: After removal of the immobilization solution, 1% BSA-PBS (manufactured by Nacalai Tesque, Inc.) was added thereto at 300 μL/well, and the plate was left standing at room temperature for 1 hour for blocking and washed five times with Tween 20-PBS (manufactured by Wako Pure Chemical Industries Ltd.).
Each antibody solution was dispensed thereto at 50 μL/well, and the plate was left standing at room temperature for 1 hour. This plate was washed five times with Tween 20-PBS. Then, Streptavidin HRP Conjugate (manufactured by R&D Systems, Inc.) diluted 200-fold with 1% BSA-PBS was dispensed thereto at 50 μL/well, and the plate was left standing at room temperature for 1 hour. This plate was washed five times with Tween 20-PBS, and TMB (manufactured by Sigma-Aldrich Co. LLC) was added thereto at 50 μL/well and reacted. At an appropriate point in time, the reaction was terminated by the addition of 1 N hydrochloric acid (manufactured by Wako Pure Chemical Industries Ltd.) at 50 μL/well. The absorbance at a sample wavelength of 450 nm and a reference wavelength of 570 nm (450 nm-570 nm) was measured using a plate reader.

[2] = target: T2, C-terminally FLAG-tagged mouse Gas6 recombinant protein (mGas6-F) (mouse, UniProt Q61592 28-674, limits assumed, gamma-carboxylated glutamic acid residues in the Gla domain (producer cells co-express rat VKOR and human GGCX); positions not given); experiment: competition ELISA: mAxl-mFc coated; mGas6-F at 50 ng/mL final premixed with the antibody; bound Gas6-F detected with anti-FLAG M2-HRP; blocked partner mAxl-mFc (Examples 5(4) and 7) [C]
T2 construct: also called mouse Gas6-F
T2 sequence (looked up): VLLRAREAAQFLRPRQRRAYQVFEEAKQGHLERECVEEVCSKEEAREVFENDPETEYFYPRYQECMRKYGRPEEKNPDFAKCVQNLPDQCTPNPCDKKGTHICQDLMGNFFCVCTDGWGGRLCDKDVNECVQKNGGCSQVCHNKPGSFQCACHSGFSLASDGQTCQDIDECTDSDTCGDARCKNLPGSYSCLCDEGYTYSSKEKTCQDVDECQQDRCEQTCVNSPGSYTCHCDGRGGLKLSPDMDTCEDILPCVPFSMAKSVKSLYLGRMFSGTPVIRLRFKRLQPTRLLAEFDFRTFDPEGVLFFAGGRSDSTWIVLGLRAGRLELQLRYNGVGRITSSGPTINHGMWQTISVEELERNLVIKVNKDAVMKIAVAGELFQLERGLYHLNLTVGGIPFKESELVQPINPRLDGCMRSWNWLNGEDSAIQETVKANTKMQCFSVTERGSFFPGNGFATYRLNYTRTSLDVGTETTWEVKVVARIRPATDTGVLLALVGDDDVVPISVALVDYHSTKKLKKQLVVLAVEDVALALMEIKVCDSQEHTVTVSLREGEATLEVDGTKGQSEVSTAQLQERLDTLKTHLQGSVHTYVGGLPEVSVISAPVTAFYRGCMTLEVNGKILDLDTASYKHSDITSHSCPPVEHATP

[3] = target: T3, C-terminally FLAG-tagged rat Gas6 recombinant protein (rGas6-F) (rat, UniProt Q63772 28-674, limits assumed, gamma-carboxylated glutamic acid residues in the Gla domain (producer cells co-express rat VKOR and human GGCX); positions not given); experiment: competition ELISA: rAxl-hFc coated; rGas6-F at 50 ng/mL final premixed with the antibody; bound Gas6-F detected with anti-FLAG M2-HRP; blocked partner rAxl-hFc (Examples 5(4) and 7) [B]
T3 construct: also called rat Gas6-F
T3 sequence (looked up): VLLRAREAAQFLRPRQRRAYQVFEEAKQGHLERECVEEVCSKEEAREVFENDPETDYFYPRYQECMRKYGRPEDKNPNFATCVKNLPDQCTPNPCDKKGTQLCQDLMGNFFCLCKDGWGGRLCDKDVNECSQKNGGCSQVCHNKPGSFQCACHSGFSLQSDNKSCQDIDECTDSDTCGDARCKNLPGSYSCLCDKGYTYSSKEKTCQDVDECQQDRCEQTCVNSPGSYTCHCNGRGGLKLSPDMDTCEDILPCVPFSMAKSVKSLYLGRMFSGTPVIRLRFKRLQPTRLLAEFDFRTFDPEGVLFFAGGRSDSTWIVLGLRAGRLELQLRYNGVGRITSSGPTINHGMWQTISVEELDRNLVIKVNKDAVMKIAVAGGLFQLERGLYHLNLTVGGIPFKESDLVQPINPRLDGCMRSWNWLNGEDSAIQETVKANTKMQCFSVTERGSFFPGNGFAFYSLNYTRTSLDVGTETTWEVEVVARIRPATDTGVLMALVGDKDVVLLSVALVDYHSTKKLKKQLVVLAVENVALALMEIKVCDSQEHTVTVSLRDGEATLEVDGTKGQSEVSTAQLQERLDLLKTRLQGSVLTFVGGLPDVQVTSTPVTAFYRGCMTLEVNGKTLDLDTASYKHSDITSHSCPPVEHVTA

antibody concentration at which binding activity was detected [1]: 0.0003 µg/mL
IC50 (read off the curve) [2]: ~0.03 µg/mL
IC50 (read off the curve) [3]: ~0.03 µg/mL
B1: anti-human Gas6 mouse monoclonal antibody KM5321 (KM5321-mKG1 antibody) (antibody, V domains shown)
VH: QIQLVQSGPELKKPGETVKISCRASGYTFTNYGMNWVKQAPGKGLKWMGWINTNTGEPTYTEEFKGRFAFSLETSATTAYLQINDLKNEDTATYFCARDEGWFVYWGQGTLITVSA
VL: ETTVTQSPASLSVATGEKVTIRCITSTDIDDDMNWYQQKPGEPPKLLISEGNTLRPGVPSRFSSSGYGTDFVFTIENTLSEDVADYYCLQTDSVPLTFGAGTKLELK
notes: Hybridoma-derived mouse IgG1, kappa; also called KM5321 antibody

antibody concentration at which binding activity was detected [1]: 0.0003 µg/mL
IC50 (read off the curve) [2]: ~0.09 µg/mL
IC50 (read off the curve) [3]: ~0.05 µg/mL
B2: anti-human Gas6 mouse monoclonal antibody KM5320 (KM5320-mKG1 antibody) (antibody, V domains shown)
VH: QIQLVQSGPELKKPGETVKISCKASGYTFTNYGMNWVKQAPGKGLKWMGWINTETGEPTYSDDFKGRFAFSLETSATTAYLQINNLRNEDMATYFCAREDGYYGTLDYWGQGTSVTVSS
VL: SIVMTQTPKFLLVSAGDRVTITCKASQSVSNDVAWYQQKPGQSPKVLIYYASNRYTGVPDRFTGSGYGTDFTFTISTVQAEDLAVYFCQQDYSSPWTFGGGTKLEIK
notes: Hybridoma-derived mouse IgG1, kappa; also called KM5320 antibody
